Measurements published in US20250243286A1 (SIXPEAKS BIO, published 2025).
Where a chain is given by its changes, count along the chain named. Read-outs that look alike come from different tables or passages of the source. One block for each binder: values may come before it.

Assays:
[1] = biological target: T1, human ActRIIB (human, UniProt Q13705 19-137, limits assumed); test: MSD-SET
T1 construct: antigen in MSD-SET; also called ACVR2B; ActR2B
T1 sequence: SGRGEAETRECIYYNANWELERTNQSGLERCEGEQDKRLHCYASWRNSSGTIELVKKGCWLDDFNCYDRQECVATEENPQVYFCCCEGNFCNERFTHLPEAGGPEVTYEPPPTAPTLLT

[2] = biological target: Dog ActRIIA (dog, UniProt A0A8I3MYH0 20-135); test: MSD-SET
[3] = biological target: mouse ActRIIA (mouse, UniProt P27038 20-135, limits assumed); test: MSD-SET
mouse ActRIIA, sequence (P27038 20-135 limits assumed): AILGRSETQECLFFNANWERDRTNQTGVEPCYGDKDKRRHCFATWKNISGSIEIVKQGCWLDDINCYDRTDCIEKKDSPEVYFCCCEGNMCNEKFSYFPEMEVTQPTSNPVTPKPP

[4] = biological target: Pig ActRIIA (pig, UniProt F1S0H6 20-135); test: MSD-SET
[5] = biological target: T1, human ActRIIB; test: MSD-SET, preliminary
[6] = biological target: T1, human ActRIIB; test: MSD-SET; remark: listed apart in the source
[7] = biological target: T2, human ActRIIA (human, UniProt P27037 20-135, limits assumed); test: MSD-SET
T2 construct: antigen in MSD-SET; also called ACVR2A; ActR2A
T2 sequence (P27037 20-135 limits assumed): as the sequence (P27038 20-135 limits assumed) above, with R20K, I73V counted along it

[8] = biological target: T1, human ActRIIB; test: MSD-SET; Fab, not IgG
[9] = biological target: T3, ActRIIA and ActRIIB (on TGFB/SMAD SBE Reporter HEK293 cells) (human); test: cell-based or functional assay
[10] = biological target: T1, human ActRIIB; test: MSD-SET; human ActRIIB; full-length IgG (Table 4B)
[11] = biological target: T3, ActRIIA and ActRIIB (on TGFB/SMAD SBE …); test: cell-based or functional assay; remark: listed apart in the source
[12] = biological target: T2, human ActRIIA; test: MSD-SET; remark: listed apart in the source
[13] = biological target: T3, ActRIIA and ActRIIB (on TGFB/SMAD SBE …); test: cell-based or functional assay; remark: listed apart in the source
[14] = biological target: T2, human ActRIIA; test: MSD-SET; remark: listed apart in the source
[15] = biological target: T2, human ActRIIA; test: MSD-SET; remark: listed apart in the source
[16] = biological target: T1, human ActRIIB; test: MSD-SET; human ActRIIB; full antibody, separate cross-reactivity study (Table 6A)

Kd [1]: 0.011 nM
Kd [2]: 0.028 nM
Kd [3]: 0.04 nM
Kd [4]: 0.022 nM
Kd [5]: 0.0197 nM
Kd [6]: 2.6 pM
B1: Soidawürstle Fab (Fab, V domains shown)
VH: QVQLVQSGAEVRKPGSSVKVSCKASGYTFTSSYINWVRQAPGQGLEWMGTINPVSGSTSYAQKFQGRVTITADTSTSTAYMELSSLRSEDTAVYYCARGGWFDYWGQGTLVTVSS
VL: QSALTQPRSVSGSPGQSVTISCTGTSSDVGSYNRVNWYQQHPGKAPKLMIYGVSKRESGVPDRFSGSKSGNTASLTISGLQAEDEADYYCGTFAGGRYYGVFGGGTKLTVL
notes: Fab; also called Soidawüsrstel (Fab)

Kd [1]: 0.01 nM
Kd [2]: 0.044 nM
Kd [3]: 0.039 nM
Kd [4]: 0.029 nM
Kd [5]: 0.0726 nM
Kd [6]: 13.8 pM
B2: Schwardamaga Fab (Fab, V domains shown)
VH: B1 VH with R12K, P53A
VL: B1 VL with Y32A, R34Y, L48P, K55R, E57P, R97K
notes: Fab

Kd [7]: 0.091 nM
Kd [8]: 0.228 nM
IC50, Activin SMAD RGA [9]: 4.06 nM
IC50, Myostatin SMAD RGA [9]: 3.7 nM
IC50 fold difference (Fab:IgG), Activin SMAD RGA [9]: 31.5 fold
IC50 fold difference (Fab:IgG), Myostatin SMAD RGA [9]: 14.2 fold
B3: Hefaknöpfla Fab (Fab, V domains shown)
VH: B1 VH with R12K, S16A, P53A, I70M, A72R, T76I, S85R, E89D
VL: B1 VL with R8A, V18I, Y32K, R34Y, P61S, D62N, R97K
notes: Fab

Kd [2]: 0.354 nM
Kd [3]: 0.239 nM
Kd [4]: 0.188 nM
IC50, Activin SMAD RGA [9]: 4.39 nM
IC50, Myostatin SMAD RGA [9]: 6.87 nM
B4: Bimagrumab Fab (Fab, V domains shown)
VH: B1 VH with R12K, S16A, I70M, A72R, T76I, S85R, E89D
VL: B1 VL with R8A, V18I, R34Y, E57P, P61S, D62N, R97S
notes: Fab

Kd [10]: 4 pM
Kd [7]: 0.014 nM
IC50 [nM] (assay not given) [11]: 0.0371 nM
IC50 fold difference to bimagrumab (assay not given) [11]: 7.96 fold
IC90 [nM] (assay not given) [11]: 1.6 nM
IC90 fold difference to bimagrumab (assay not given) [11]: 4.11 fold
Kd [12]: 14 pM
IC50, Activin SMAD RGA [13]: 0.134 nM
IC50, Myostatin SMAD RGA [13]: 0.263 nM
IC90, Activin SMAD RGA [13]: 2.14 nM
IC90, Myostatin SMAD RGA [13]: 2.18 nM
Fold Difference to bimagrumab [14]: 10 fold
Kd [14]: 0.014 nM
IC50, Activin SMAD RGA [9]: 0.14 nM
IC50, Myostatin SMAD RGA [9]: 0.33 nM
B5: Antibody Riaba (antibody, V domains shown)
VH: B1 VH with R12K, S16A, P53A, I70M, A72R, T76I, S85R, E89D
VL: B1 VL with R8A, V18I, R34Y, E57D, P61S, D62N, R97K
notes: full-length IgG

Kd [7]: 0.125 nM
Kd [8]: 0.823 nM
IC50, Activin SMAD RGA [9]: 9.9 nM
IC50, Myostatin SMAD RGA [9]: 13.4 nM
IC50 fold difference (Fab:IgG), Activin SMAD RGA [9]: 33.8 fold
IC50 fold difference (Fab:IgG), Myostatin SMAD RGA [9]: 40.7 fold
B6: Wurschdsalat Fab (Fab, V domains shown)
VH: B1 VH with R12K, S16A, P53A, I70M, A72R, T74E, T76I, S85R, E89D
VL: B1 VL with R8A, V18I, R34Y, P61S, D62N, R97K
notes: Fab

Kd [10]: 6 pM
Kd [7]: 0.005 nM
Kd [15]: 0.0218 nM
Kd [16]: 4.4 pM
Kd [12]: 5 pM
IC50, Activin SMAD RGA [13]: 0.266 nM
IC50, Myostatin SMAD RGA [13]: 0.4 nM
IC90, Activin SMAD RGA [13]: 1.9 nM
IC90, Myostatin SMAD RGA [13]: 3.89 nM
IC50, Activin SMAD RGA [9]: 0.29 nM
IC50, Myostatin SMAD RGA [9]: 0.33 nM
B7: Antibody Wurschdsalat (antibody, V domains shown)
VH: B1 VH with R12K, S16A, P53A, I70M, A72R, T74E, T76I, S85R, E89D
VL: B1 VL with R8A, V18I, R34Y, P61S, D62N, R97K
notes: full-length IgG
